Results reported in patent US20170112908A1.

Target: polyclonal antibodies in mouse sera specific for human PCSK9 aa 153-162 or aa 153-165
Assay: competition ELISA, 20 ug peptide with sera, plate coated with m2 (competitor)

| % Competition compared to the related control group | Binder |
| --- | --- |
| 69% | VIPWNLERTT |
| 13% | SIPWNLARIT |
| 54% | VIPWNLERLT |
| 78% | SIAWNLERIT |
| 0% | ITELSRWPNI |
| 69% | SQPWNLERIL |
| 75% | SIPWALERIT |
| 66% | SIPWNLERITPPS |
| 73% | SIPWNLERITPTR |
| 44% | SIPWSLERIQ |
| 7% | SIPSNLERIT |
| 66% | SQPWNLERIQ |
| 47% | VIPWNLERIQ |
| 52% | SIPWNGERIT |
| 13% | SIPWNLEDIT |
| 62% | SITWNLERIT |
| 53% | SQPWSLERTL |
| 8% | SIPANLERIT |
| 66% | VQPWSLERLL |
| 52% | TIPWNLERIT |
| 78% | SIVWNLERITPPR |
| 75% | SIPWNLERITPVR |
| 77% | SIPWNLERAT |
| 70% | SIPWNLERITAPR |
| 70% | SIPWNLERITPNR |
| 66% | SIPWNLERITPPK |
| 0% | ERTKSDPGAQHREF |
| 53% | SIPWNLDRITPPR |

The remaining lines, values behind:

| Binder | % Competition compared to the related control group |
| --- | --- |
| SIPWNLERITPAR | 74% |
| SIPWNVERITPPR | 78% |
| SVPWNLERIQ | 61% |
| SIPWNFERITPPR | 79% |
| AIPWNLERIT | 88% |
| SVPWNLERTT | 73% |
| SQPWNLERLT | 69% |
| SIPWNDERIT | 71% |
| SQPWNLERIT | 30% |
| SVPWSLERLT | 74% |
| SVPWNLERIL | 59% |
| SIPDNLERIT | 3% |
| SIPGNLERIT | 0% |
| SIPWNAERIT | 73% |
| SIPWQLERITPPR | 79% |
| SIPWNLERIL | 56% |

| Binder | % Competition compared to the related control group |
| --- | --- |
| SGPWNLERITPPR | 54% |
| SIPWNLERITPPA | 65% |
| SIPWNLERISPPR | 79% |
| SIPWSLERIT | 73% |
| SVPWNLERIT | 62% |
| SIPWDLERITPPR | 74% |
| VIPWNLERIL | 49% |
| VQPWSLERTL | 48% |
| SIPWNLERITPPL | 66% |
| SVPWNLEKLT | 11% |
| SIPWNLERIA | 80% |
| SVPWNLERLT | 57% |
| SIPHNLERIT | 0% |
| VIPWNLERIT | 51% |
| SIPWNLERTT | 73% |
